T1: OsCYCOS2 aa 50-233 (Oryza sativa, UniProt A2YH60 50-233)
T1 construct: bait, Gal4 DBD fusion; also called PN20257; O. sativa Cyclin OsCYCOS2
T1 chain: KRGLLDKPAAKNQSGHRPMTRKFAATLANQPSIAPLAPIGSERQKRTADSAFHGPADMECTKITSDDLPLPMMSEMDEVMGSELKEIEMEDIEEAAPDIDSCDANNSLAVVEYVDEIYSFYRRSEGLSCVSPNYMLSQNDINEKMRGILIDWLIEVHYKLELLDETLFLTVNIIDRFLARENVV

T2: OsCYCOS2 aa 170-310 (Oryza sativa, UniProt A2YH60 170-310)
T2 construct: bait, Gal4 DBD fusion; also called PN20257
T2 sequence: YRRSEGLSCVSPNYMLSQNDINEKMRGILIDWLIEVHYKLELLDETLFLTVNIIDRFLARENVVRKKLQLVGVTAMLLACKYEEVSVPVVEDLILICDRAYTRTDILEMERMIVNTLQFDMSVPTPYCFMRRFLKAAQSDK

T3: OsMADS6 aa 50-200 (Oryza sativa, UniProt Q6EU39 50-200)
T3 construct: bait, Gal4 DBD fusion; also called PN20233
T3 sequence: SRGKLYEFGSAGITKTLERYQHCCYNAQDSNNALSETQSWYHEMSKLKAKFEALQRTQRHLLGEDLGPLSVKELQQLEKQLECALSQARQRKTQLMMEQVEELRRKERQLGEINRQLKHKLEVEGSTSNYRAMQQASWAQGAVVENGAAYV

T4: OsHOS59 aa 1-100 (Oryza sativa, UniProt Q94LW4 113-212)
T4 construct: bait, Gal4 DBD fusion; also called PN20559; O. sativa Homeobox Protein HOS59, Fragment
T4 sequence: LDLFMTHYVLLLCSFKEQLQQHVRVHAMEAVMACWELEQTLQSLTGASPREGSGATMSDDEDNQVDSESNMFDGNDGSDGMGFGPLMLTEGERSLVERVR


Target: T1, OsCYCOS2 aa 50-233
Test: Y2H; output trait library
In short: (§1)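 Protein-protein interactions were detected in an automated, high-throughput yeast two-hybrid assay from Myriad Genetics Inc. (Salt Lake City, Utah), with a bait clone encoding a defined amino-acid fragment of a rice protein screened against the input trait or output trait rice prey library. Interacting proteins were identified by BLAST comparison of the encoding sequences of retrieved prey clones against databases.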

| binding result | Binder |
| --- | --- |
| binds | OsPN29958 aa 3-304 (other, prey, AD fusion; also called Novel Protein PN29958, Fragment, centromere homologue) QNEVSALEKQTLSLANDCLQSNKLRMEENALSTQVLKTNMRSSGDQNTVRTVKDMELQKLHGTIKALQKVVTDTAVLLDQERLDFNANLQEARKQIEVLKLKEILDDDLIEMNYEQMLKDIQLDLIQISSGNKTGSLGQANKTVAQANEKMLDSHGIVGASSSHVRNDLRPPQSESFERDNYKRPPSELMVVKELSIDKQELPRSITTEPHQEWKNKVIERLASDAQRLNALQSSIQELKTNTEASEGLELESVRYQIREAEGFITQLIDSNGKLSKKAEEFTSEDGLDGDNIDLRSRHQRK |
| binds | OsPN29966 aa 8-216 (other, prey, AD fusion; also called Novel Protein PN29966, Fragment, myosin heavy chain) GTISAVEQESARQIASKDAEIAFLNEKLHQFRNSGLSLSEGRDKLYEEIYNLRQQLVTLSKSLLNSEWGLSVSHYNNFEGAEDESKHRGNEKSSKDGITKENGSKGSNEDIFIDPTVLKHMDRDELVAHFNKMMNQMKRQHDSTLQEKTEEIFRLKRENLKKEGPNPWHLRNNKEFELMRKKIWEVITKLDEVLVENKRTIRIKSDVFP |
| binds | OsPN29961 aa 10-215 (other, prey, AD fusion; also called Novel Protein PN29961, Fragment, Similar to A. thaliana Unknown Protein BAB02349) QKDGAPDEGSVGVPGRKTKETVTAADAIIDALDTAEEEVKRLDQHQEGQNNGNGTTFQPNVIMQGQSPSDYVLNVVSNVRPNDLEQALLSLPFSDALKIMSYLKEWSMVPLKVELVCRVCLVLLQTHHSQLTTTPSARSILTELKGILYSRVKECKDAIGFNLAAMDHIKELLAMRSDAPFRDARAKLMEIRQEQSRRSDRSDGAE |

Further lines, the binder ahead of its results:

| Binder | binding result |
| --- | --- |
| OsPN29882 aa 107-273 (other, prey, AD fusion; also called Novel Protein PN29882, Fragment, myosin heavy chain) ALMVERLEGSRQKLLMEIDSQSSEIEKLFEENSALSTSYQEAVAVTMQWENQVKDCLKQNEELRSHLEKLRLEQATLLKTSNTTIQPDGQNETSISFPPEFVTENLSLKDQLIKEQSRSEGLSAEIMKLSAELRKAVQAQNNLARLYRPVLRGIESNLMKMKQETYA | binds |
| PN23136 aa 66-191 (other, prey, AD fusion; also called Hypothetical Protein BAA85200 Similar to Syntaxin Related Protein AtVam3p) LRERIHKTRQHITQLVKDTSEKLKQASEADHRVEVSASKKIADAKLAKDFQAVLKEFQKAQRLAVEREAAYAPFISQAGLPQSYNSSEVNNGADKLAEQRTALLESRRQELVFLDNEIVFNEAVIE | binds |

What follows are binders tested against T2, OsCYCOS2 aa 170-310 (assay: Y2H; output trait library).
In short: as §1

| binding result | Binder |
| --- | --- |
| binds | OsPN29942 aa 1-159 (other, prey, AD fusion) EHESDEEKNEVDTSNEIKEIVIDDMEPKVFQAGFLFMYRDNLVGDDELSASSSDCSIFDTLAGKLLAAADRYELPRLRLLCESYLCKHISVNSVATTLALADRHHAMELKSVCLKFAAENLSAVIRTDGFDYLKDNCPALQSEILRTVAGCEEECSSGG |
| binds | PN26210 aa 364-613 (other, prey, AD fusion; also called Putative CCAAT Displacement Protein) VGYNSIEAEDWELATNGEEMSKLEALLLDKNRKMEHELTQLKVKISEKSNLLEEAEKKIAELTAKAEEQQKLILKLEDDILKGYSSTDRRTSLLNDWDLQEIGSNEVAEGTDPRHAPQDQDQSSMLKVICNQRDRFRTRLRETEEELRRLKEKYEMLVVELEKTKADNVQLYGKIRYVQDYSHEKIVSRGPKKYAEDVESGSSDVETKYKKMYEDDINPFAAFSKKEKDQRYKELGLRDKITLSSGRFLL |
| binds | PN26210 aa 422-646 (other, prey, AD fusion; also called O. sativa Putative CCAAT Displacement Protein) IAELTAKAEEQQKLILKLEDDILKGYSSTDRRTSLLNDWDLQEIGSNEVAEGTDPRHAPQDQDQSSMLKVICNQRDRFRTRLRETEEELRRLKEKYEMLVVELEKTKADNVQLYGKIRYVQDYSHEKIVSRGPKKYAEDVESGSSDVETKYKKMYEDDINPFAAFSKKEKDQRYKELGLRDKITLSSGRFLLGNKYARTFIFFYTIGLHLLVFTLLYRMSALSYL |
| binds | OsPN30854 aa 100-169 (other, prey, AD fusion; also called Novel Protein PN30854, unknown) RIDVVNRQLKPLGKTCVKKEKEYKEILEAYNEKNKEKALLVNRLIELVSESERMRMKKLEELNKTVDSLY |
| binds | OsPN23484 aa 90-245 (other, prey, AD fusion) RLQREKAAAQMEARQFRRYAEGREDREREVQEELASLSDLAASYHSRLQSHGIDPDSFSDDGEEEQHDEEDGEEVEQIDTAALQTDGSSGGDSIGGMQVKAMVDDDEEEQFTPVEKEFEYTVDVRCASSTTKVSGAVVVGEFMGEGNAAAGGLYAR |

Further lines, the binder ahead of its results:

| Binder | binding result |
| --- | --- |
| OsPN23484 aa 77-233 (other, prey, AD fusion) AETATSEAMLMIERLQREKAAAQMEARQFRRYAEGREDREREVQEELASLSDLAASYHSRLQSHGIDPDSFSDDGEEEQHDEEDGEEVEQIDTAALQTDGSSGGDSIGGMQVKAMVDDDEEEQFTPVEKEFEYTVDVRCASSTTKVSGAVVVGEFMG | binds |
| OsPN23484 aa 64-212 (other, prey, AD fusion) RELQAELDAERASAETATSEAMLMIERLQREKAAAQMEARQFRRYAEGREDREREVQEELASLSDLAASYHSRLQSHGIDPDSFSDDGEEEQHDEEDGEEVEQIDTAALQTDGSSGGDSIGGMQVKAMVDDDEEEQFTPVEKEFEYTVD | binds |
| PN20815 aa 1-134 (other, prey, AD fusion; also called Hypothetical Protein PN20815 Similar to A. thaliana Myosin Heavy Chain, Fragment) MDKELKERDEKYVELDTKFQRLHKRAKQRIQDIQKEKDDMEARFNEINQKAEQASSLQSAAQQELERARQQASEALRSMDAERQQLRTVNSKLRTNLDEARVALEARNNVLEKLRQSMFEKEQLLEQTQASLQS | binds |

These binders were tested against T3, OsMADS6 aa 50-200 (assay: Y2H; output trait library).
In short: as §1

| binding result | Binder |
| --- | --- |
| binds | OsMADS7 aa 95-259 (other, prey, AD fusion; also called PN21116) RESEQLKASRNEYLKLKARVENLQRTQRNLLGPDLDSLGIKELESLEKQLDSSLKHVRTTRTKHLVDQLTELQRKEQMVSEANRCLRRKLEESNHVRGQQVWEQGCNLIGYERQPEVQQPLHGGNGFFHPLDAAGEPTLQIGYPAEHHEAMNSACMNTYMPPWLP |
| binds | OsMADS5 aa 61-171 (other, prey, AD fusion; also called PN20770) SCMYKTLERYRSCNYNLNSCEASAALETELSNYQEYLKLKTRVEFLQTTQRNLLGEDLVPLSLKELEQLENQIEISLMNIRSSKNQQLLDQVFELKRKEQQLQDANKDLKR |

Continued, binder first:

| Binder | binding result |
| --- | --- |
| OsMADS15 aa 73-183 (other, prey, AD fusion; also called PN20842) YSYAEKALISAESESEGNWCHEYRKLKAKIETIQKCHKHLMGEDHESLNLKELQQLEQQLESSLKHIISRKSHLMLESISELQKKERSLQEENKALQKELVERQKNVRGQQ | binds |
| OsFDRMADS8 aa 91-233 (other, prey, AD fusion; also called PN20698) KDDTLGLAKKLEALDESRRKILGENLEGCSIEELRGLEMKLEKSLHNIRLKKTELLERQIAKLKEKERTLLKDNENLRGKHRNLEAAALVANHMTTTTAPAAWPRDVPMTSSTAGAADAMDVETDLYIGLPGTERSSNRSETG | binds |
| OsMADS18 aa 64-249 (other, prey, AD fusion; also called PN20912) EGILERYQRYSFDERAVLEPNTEDQENWGDEYGILKSKLDALQKSQRQLLGEQLDTLTTKELQQLEHQLEYSLKHIRSKKNQLLFESISELQKKEKSLKNQNNVLQKLMETEKEKNNAIINTNREEQNGATPSTSSPTPVTAPDPIPTTNNSQSQPRGSGESEAQPSPAQAGNSKLPPWMLRTSHT | binds |
| Os008339 aa 108-226 (other, prey, AD fusion; also called PN20847) ELAETSLRLRQMRGEELHRLNVEQLQELEKSLESGLGSVLKTKSKKILDEIDGLERKRMQLIEENLRLKEQVSRMSRMEEMQPGPDSEIVYEEGQSSESVTNASYPRPPPDNDYSSDTS | binds |
| OsBAA81880 aa 120-228 (other, prey, AD fusion; also called PN20837) IDELQQLEKNLEAGLHRVMLTKDQQFMEQISELQRKSSQLAEENMQLRNQVSQISPAEKQVVDTENFVTEGQSSESVMTALHSGSSQSQDNDDGSDVSLKLGLPCGAWK | binds |

The binders below were run against T4, OsHOS59 aa 1-100 (assay: Y2H; output trait library).
In short: as §1

| binding result | Binder |
| --- | --- |
| binds | OsPN23830 aa 1-169 (other, prey, AD fusion) MGFLEDFQASVEALPAMLQRNYSLMRELDKSLQGVQTGNEQRCQQEIEDIKHGLESGSITYDPAKLKFSDEAIEEQKHCVRIADEKVALASQTYDLVDAHIQQLDQFMRKLEELRQEKEAATTAAAAAAAAAASVATGTPVAATVTASAGTSTADNTPKGGRSSERGRG |
| binds | OsPN23830 aa 4-207 (other, prey, AD fusion; also called Novel Protein PN23830, Similar to A. thaliana Putative PHD-Finger Protein) LEDFQASVEALPAMLQRNYSLMRELDKSLQGVQTGNEQRCQQEIEDIKHGLESGSITYDPAKLKFSDEAIEEQKHCVRIADEKVALASQTYDLVDAHIQQLDQFMRKLEELRQEKEAATTAAAAAAAAAASVATGTPVAATVTASAGTSTADNTPKGGRSSERGRGGRKKTAKVPTEQPAPAIDLELPVDPNEPTYCLCNQVSY |
| binds | OsPN24092 aa 797-948 (other, prey, AD fusion; also called Novel Protein PN24092, Similar to O. sativa Putative Myosin) SIKDQVQTYLEEINTLKSSKNEKEEMIERLQSEIRSLKFEYDNLKILMSTNDSEKHNLASQVLKLRRALESREDVKQNGVKSDEDNHHATSKRIKHDDGTTGSRNVLPSTNRHNANGDCNGHDRRDAAHDQSVKELEILKERNTALEEELKE |
